Results published in the DeepSol protein solubility set.

Test: soluble on expression in E. coli; label from the status in PepcDB or PDB records

| Sequence | soluble on expression in E. coli |
| --- | --- |
| MGSDKIHHHHHHMTNAVYTLIVRALSGIVSERAAETLLRAALREQGLTAEGVTAGEMQRVLSGPLLTRLSGVLPPERARAELGNLAAQLQKHYPKAPTLFSSPAATWDETTSTHWEDIDFSADDFEFDDPEYTATPPERQYALGTAAGQEALIQDLGRIPGVQGVMVCRASGEVLRERALSGSRNLSSVIAATALLFQKRALNLMSADMGGQTVCMRPVGAYCVAVVAGPQVNIGRLLAELQQVREAA | not soluble |
| MDYLPLFADLKQRPVLIVGGGEVAARKIELLHRAGAQVWVVAQTLSSELEQQYQDGRIHWLAQDFLPEQLDNVFLVIAATNDTVLNAAVFAAADQRCILANVVDDQPLCSFIFPSIVDRSPLVVAISSSGQAPVLARILREKLEALLPTRLSDMAAIAGRWRGRVKQHMASMGERRRFWEHAFSGRFASLISRGQLTEAENELQLSLEGQHRALGEVALVGAGPGDAGLLTLRGLQVMQQADVVLYDHLVSPEVLDLVRRDAERICVGKRAGAHSVTQEATNQLLVTLAQQGKRVVRLKGGDPFIFGRGGEELQVVAQAGIPFQVVPGVTAAAGATAYAGIPLTHRDHAQSVTFITGHCRPDGDDLDWQTLARGRQTLAIYMGTVKAAAISQQLIAHGRSSTTPVAVIGRGTRVDQQVLIGTLAQLESLAQQAPTPALLVIGEVVNLHHQIAWFGQQPQTESAISPSVVNLA | not soluble |
| MNILLCCAAGMSSSLIVTKMEKAAEARGIEVKIWAVSGSEVNSHIDEADVLLLGPQVRYLLPKMKELCKGKGVPVDVIQSVHYGLCNGEAILQAALSMKP | not soluble |
| MASKASGGSTRNGRDSISKRLGVKRYDGQFVKAGNIIVRQRGTRIYPGKNVGMGSDYTLFALKDGYVYFETRRKKKFVSVLSPEEWEKVMAQKNGKVH | not soluble |
| MGHHHHHHSHMYADEVDKDRRTFKKNFSSARGSGIDGKWKRDMFQTANRSPKQNFTTKRRAQTNFVTKAGAAAAGLATRNISTASIRGRTAPAVVREIHTGPSTLIIKNLATTVTQEDLEELFEQYEPELVQLHYGPTGESNGCADLIVPHAQVAIIQKALEGVLLDGEPIEVLEANPPKQVSVFDRIKKVSRGNDFKAKNMRVVVKSKGGFQKRGARGDF | soluble |
| MLKKFFLPDEFVKNIFHITPEKLKERNVKGIITDLDNTLVEWDRPNATPRLIEWFEEMKEHGIKVTIVSNNNERRVKLFSEPLGIPFIYKARKPMGKAFNRAVRNMELKKEDCVVIGDQLLTDVLGGNRNGYHTILVVPVASSDGFITRFNRQVERRILSALKRKGHIQWEELEHHHHHH | soluble |
| MTNTSFDNSTIVVGVAGGIAAYKSCHVVRGFKEDGANVVVVPTSAALNFVGKATFEALSGNPVSTTVFDAVDEVRHVNVGQHADLIVVAPATADLIARVAMGRADDLLTATLLVATCPIVLVPAMHAEMWSNAATRENVATLRRRGIIVMDPAHGRLTGADTGPGRLPDSDQIIDFAKTVARTKVMPRDLVGKKVL | not soluble |
| MQNAILLVSCPDRKGLVKEISSFIADNGGNIVSFDQHIDEQTKTFLARVEWSLEDFKIPREKIENEFKKVAQKFSMNFQISFSDYVKKVAIFVSKQEHCFYDLMHRFYSGELKGEVKLVISNHEKARKTAEFFGVPFYHIPKTKENKLEAEKRELELLKEYGVELVVLARYMQILSPKFVKEYENKIINIHHSFLPAFPGAKPYERAFGKGVKIIGATAHYVTEELDEGPIIEQDVVRVSHKDSLEDFIRKGKDIEKVVLARAVKWHLEDKILVYNGKTVVFE | soluble |
| LKSLRCFWNVRFITLSMLPRYTAQMLRRFIPPMLSLWLLFASLAQANGTVDKIQIKGLDKGDDVEMMKNITVSLSLYSVVGKEQGEFRLEYLLSQAEFQTRQALEPFGYYAPTIRIDAPRQNDHITVVIYVDKGEPVRVRQAHVAMTGAAAQDHYLQRDLEDFKPKLGEIFNHPTYEASKVRITRRLAERGYFDADFTHRRVEVTRAAHAADIDLIWESGRRYDMGPVRFHYDYFHEGLFNPLVYWDEGSYFHEGKLDRLRESLTKLDYFSSIDIQPKPEEADPEGNVPVDVKLERAKSKIYTAGISYGSESGAGLRAGVERRYMNARGHKMNARLDYAQNLKSLTTAYQIPAFKWLDGWYIFFARAYDEQTKYIDLRNVKLSAARSGQINRHLTATASLNALRGRWRYRADDGTNTVAYQQSTLVYPQLEASYVDVDDATFPRNGSAATVLLRGGASALGSKSNFTQLHGQLRWFHGLGASSRLILRGEAGTTWASDLVAMPPSLRFFAGGVNSIRGYAFREVGPRTAKPDAFALGAKHVFSAGAEFEYYYKGGPFGGAVFVDSGSAFNRYPDWHTGVGIGLRYRSPVGPVRVDIARGLNSPDSKIQLYIDIGANL | soluble |
| MRLYLLAFLALFGMNAMAADNWKAFPYDQSAYDYPGDKLKEAWPRLTRGFGDYPYPDADWVVNMATAHPDALEKTVKAGTGFTGKPEEAAQYAARLQDVWRLLFRGDYAKAKEQGLALGVGGQVPAMFAQVLYAMFLAPGQAEKQRLLEEVIDYTEQAGPLVKADIVAQFGSVYAKARLAEELSVPVVLKRGYTSEIPKELDALLARQPNQPFALALYGGYEAGVIRKVGKLVGKMTYGVSADKMEQYFARSFRQANDLPIGHYEYANALTYVYGDDEREKAIAQLKQAVAIKPINAMEALEVAHAKKLLAGFEQNTAQR | not soluble |
| MITAERYHDISMGHRVVGHDHKCRHLHGHNYRIHFICSAPALDSIGRVVDFGVIKELLCQWLEDHWDHKMMLWEQDPLLPALRATVPDDLVAVPFNPTAENMAVYLTEVVGPMQLAGTGVTLIGCRVDETRKCSASYTL | not soluble |
| MGSDKIHHHHHHMMKSIILIVLDGLGDRPGSDLQNRTPLQAAFRPNLNWLASHGINGIMHPISPGIRCGSDTSHMSLLGYDPKVYYPGRGPFEALGLGMDIRPGDLAFRANFATNRDGVIVDRRAGRENKGNEELADAISLDMGEYSFRVKSGVEHRAALVVSGPDLSDMIGDSDPHREGLPPEKIRPTDPSGDRTAEVMNAYLEEARRILSDHRVNKERVKNGRLPGNELLVRSAGKVPAIPSFTEKNRMKGACVVGSPWLKGLCRLLRMDVFDVPGATGTVGSNYRGKIEKAVDLTSSHDFVLVNIKATDVAGHDGNYPLKRDVIEDIDRAMEPLKSIGDHAVICVTGDHSTPCSFKDHSGDPVPIVFYTDGVMNDGVHLFDELSSASGSLRITSYNVMDILMQLAGRSDKFGS | not soluble |
| MAKEGSVAPKERINVTFKPATGGNQEEIELPLKLLAIGDYTHRRDERKVEDRKPISIDKTTFDEVLAKQELELTLSVPNRLQDEEGVAEELPVKLRVNSMKDFNPASLVEQVPELKKLMELRDALVALKGPLGNAPAFRKAIEGVLADDESRGRVLGELGLKAPAPDA | not soluble |
| MADPKGFLTTPREEWPRRPAGERVRDWDEVYVPGALLPIVGRQADRCMDCGVPFCHEACPLGNLIPEWNDLVSRSDWRAASERLHATNNFPEFTGRLCPAPCEAGCVLAINQPAVTIKNVECAIADTAWEEGFVPPLPPERLSGRTVAVIGSGPAGLAAAQQLTRAGHTVAVYERDDRIGGLLRYGIPAFKMEKRHLERRVGQMRAEGTRFRTSAAVGRDVDAAALRTRYDAVVIATGATAWRELTVPGRELAGVHQAMEYLPLANRVCEGDLERSPLSAAGRHVVVVGGGDTGADCLGTAVREGAASVTQLDIYARPGAERDERAEPWPTYPRLYRLSAAHEEARDLRSAPAADADARLFAASTLRFTGDERGHVRALHLVGVDTGRRPLPGSERSLPADLVLLALGFSGPDRHDGLVDGLGLDMEPRGTITRDRGFATNVPGVFAAGDAARGQSLVVWAIAEGRAVAAAVDRHLSGGSTRLPAPVGPYDRPMTALEHHHHHH | not soluble |
| MNFHVMLTSSHETSFNFVVLLRANSKMKQQRNACRSCRLKECIKVGMNPRAVQGDIDTASTSSASPNLVSVEMHPYTNFREVECQTEVSTISSHPTSPSTLPFVSSGSSICSVSSSCSSVSTVYSNCLAMLPPNPSLPKYDYLLASLSRIFERVDEHAPEPLPNTYSFEHAFYNPHLICNRTKLTPTGERIATLPEVLQDFRRIFVLFTDVLSILPEFSRLDESDRMVLAKSRFSFFYWWLTCCWTAKVGCPGVCYANGAYHPSDKRQQAFPDVKGVTELSVETVSKPLANINITDAEMLVGSVFAIFYEYPLPPKVSYASTHILNEARDLYTQCMITVSPYSQLEAKSASRLAEISLIFSSITNLKYLTSDNIELSDVLHVMEVDQLITEAFDVHRPME | not soluble |
| MGSDKIHHHHHHMLVVTTACNLDCAYCYEGGGNGQGEMMDLDTALRALDLVAASNQPFHVQLTGGEPLLAGELVFRILEYIRNNNLPATTAIQTNGVLLDHQTARRLHSFGTAVGVSVDGLPAIQEQLRGQGAATWKALAMLDSERVPFSVTTVLSSRNTRDLSTLGMALHSMPAASAIGLDLLVQKGSAAAKIGVQPPDAVTIRSGVTRLLATLDVLNAQRSRPLILRERQTVLKALGRDEARPYCQACTGSSLAVTPRGELYPCTQTLGDARFHLGTLDHPRLSGTALPDGRLPKREECAGCGLQGRCPGDCPSRLHYNGADGAGLVCALYRTICDYCLYKGEIPS | not soluble |
| VAIRNFDISKISGEWYSIFLASDVKEKIEENGSMRVFVDVIRALDNSSLYAEYQTKVNGECTEFPMVFDKTEEDGVYSLNYDGYNVFRISEFENDEHIILYLVNFDKDRPFQLFEFYAREPDVSPEIKEEFVKIVQKRGIVKENIIDLTKIDRCFQLRG | soluble |
| MQDDPRYRVEVEVSPRFLAHQSTPEEGRYAFAYSIRIQNAGAVPARLIARHWKITDANGRTEQVDGEGVVGEQPRLRPGEAFHYTSGVLLETEQGQMQGYYDMVADDGTEFTAPIAAFVLSVPRTLHLEHHHHHH | soluble |
| MGSDKIHHHHHHMSNHSSSIPELSDNGIRYYQTYNESLSLWPVRCKSFYISTRFGQTHVIASGPEDAPPLVLLHGALFSSTMWYPNIADWSSKYRTYAVDIIGDKNKSIPENVSGTRTDYANWLLDVFDNLGIEKSHMIGLSLGGLHTMNFLLRMPERVKSAAILSPAETFLPFHHDFYKYALGLTASNGVETFLNWMMNDQNVLHPIFVKQFKAGVMWQDGSRNPNPNADGFPYVFTDEELRSARVPILLLLGEHEVIYDPHSALHRASSFVPDIEAEVIKNAGHVLSMEQPTYVNERVMRFFNAETGISR | not soluble |
| MARGMNHVYLIGALARDPELRYTGNGMAVFEATVAGEDRVIGNDGRERNLPWYHRVSILGKPAEWQAERNLKGGDAVVVEGTLEYRQWEAPEGGKRSAVNVKALRMEQLGTQPELIQDAGGGVRMSGAMNEVLVLGNVTRDPEIRYTPAGDAVLSLSIAVNENYQDRQGQRQEKVHYIDATLWRDLAENMKELRKGDPVMIMGRLVNEGWTDKDGNKRNSTRVEATRVEALARGAGNANSGYAAATPAAPRTQTASSAARPTSGGYQSQPSRAANTGSRSGGLDIDQGLDDFPPEEDDLPF | soluble |
| MIDSANRADVFLRKPAPVAPELQHEVEQFYYWEAKLLNDRRFEEWFALLAEDIHYFMPIRTTRIMRDSRLEYSGSREYAHFDDDATMMKGRLRKITSDVSWSENPASRTRHLVSNVMIVGAEAEGEYEISSAFIVYRNRLERQLDIFAGERRDTLRRNTSEAGFEIVNRTILIDQSTILANNLSFFF | soluble |
| MVFTPLDVRTIVSLPSCPKCNSEYTYEDGSLLICPECAHEWSADAGSADASDDVKVIKDSTGNVLQDGDTITVIKDLKVKGSSLVVKVGTKVKNIRLVDGDHDIDCKIDGIGAMKLKSEFVRKV | not soluble |
